This note sets out measurements from US12018066 (TRIAD NATIONAL SECURITY, dated 2024).

To fix the notation:
B1: B04 minibody (scFv-Fc) (Fc fusion)
chain: SYVLTQPPSVSVAPGKTARITCGGNNIGIRSVHWYQQKPGQAPVLVIYYDSDRPSGIPERFSGSKSGNTATLTISRVEAGDEADYYCQVWDSSSDHPVFGGGTKLTVLSGGSTITSYNVYYTKLSSSGTQVQLVESGAEVKKPGASVKVSCKASGYTFTRYYMHWVRQAPGQGLEWMGIINPSGGTTSYAQKFQGRVTMTRDTSTSTVYMELSSLRSEDTAVYYCARSFGELTSFDYWGQGTLVTVSS
B2: R09 minibody (scFv-Fc) (Fc fusion)
chain: QPGLTQPPSVSVSPGQTASITCSGDKLGYKYVSWYQQKPGQSPVLVIYEDTKRPSGIPKRFSGSNSGNTATLTICGTQAVDEADYYCQAWDSSVVFGGGTKLTVLSGGSTITSYNVYDTKLSSSGTQVQLVQSGAEVKKPGASVKVSCKASGYTFTSYGISWVRQAPGQGLEWMGWISAYNGNTNYAQKFQGRVTMTTDTSTSTAYMELRSLRSDDTAVYYCARDMELRPPFDYWGQGTLVTVSS
B3: D04 minibody (scFv-Fc) (Fc fusion)
chain: SYVLTQPPSVSVAPGKTARITCGGNNIGWKSVHWYQQKPGQAPVLVVYNDNDRPSGVPERFSGSNSGNTATLTISRVVAGDEADYYCQVWDSSSDHVLFGGGTKLTVLSGGSTITSYNVYYTKLSSSGTQVQLVQSGAEVKKPGSSVKVSCKASGGTFSSYAISWVRQAPGQGLEWMGGIIPIFGTANYAQKFQGRVTITADESTSTAYMELSSLRSEDTAVYYCARASGRWLQFWHYYGMDVWGQGTTVTVS
B4: H03 minibody (scFv-Fc) (Fc fusion)
chain: SYELTQPPSVSVAPGQTARITCGGNNIGSKSVHWYQQKPGQAPVLVIYYDSDRPSGIPERFSGSNSGNTATLTISRVEAGDEADYYCQVWDSSSALYVFGTRTKVTVLSGGSTITSYNVYYTKLSSSGTQVQLVESGGGLVQPGRSLRLSCAASGFTFDDYAMHWVRQAPGKGLEWVSGISWNSGSIGYADSVKGRFTISRDNAKNSLYLQVNSLRAEDTAVYYCARELIVGTTSPQTDAFDIWGQGTMVTVSS
B5: H02 minibody (scFv-Fc) (Fc fusion)
chain: QSVVTQPPSVSAAPGQKVTISCSGSSSNIGNNYVSWYQQLPGTAPKLLIYRDTQRPSGVPDRFSGSKSGTSASLAISGLRSEDEADYYCATWDKSLSGPVFGGGTKVTVLSGGSTITSYNVYYTKLSSSGTQVQLQQSGPGLVKPSQTLSLTCAISGDSVSSNSAAWNWIRQSPSRGLEWLGRTYYRSKWYNDYAVSVKSRIIINPDTSKNQFSLQLNSVTPEDTAVYYCARQDNNPYYGLDVWGQGTTVTVSS
B6: D11 minibody (scFv-Fc) (Fc fusion)
chain: SYELTQPPSVSVAPGQTARITCGGNNIGSKSVHWYQQKPGQAPVLVVYDDSDRPSGIPERFSGSNSGNTATLTISGTQAMDEADYYCQAWDSSTAYVFGSGTKLTVLSGGSTITSYNVYYTKLSSSGTQVQLEESGGGLVQPGGSLRLSCAASGFTFSNYAMSWVRQAPGKGLEWVSAISGSGGATFHADSVKGRFTISRDNSKNTLYLQMNSLRAEDTAVYYCARRVGYDSSGYYWSDAFDIWGQGTMVTVSS
B7: D07 minibody (scFv-Fc) (Fc fusion)
chain: SYELTQPPSVSVAPGETARMTCGGNNIGTKGVHWYQQKPGQAPVLVVYDDSDRPSGIPERFSGSNAGNTATLTISRVEAGDEADYYCQVWDSRSDQYVFGTRTKLTVLSGGSTITSYNVYYTKLSSSGAQVTLKESGPVLVKPTETLTLTCTVSGFSLSNARMGVSWIRQPPGKALEWLAHIFSNGEKSYSTSLKSRLTISKDTSKSQVVLTMTNMDPVDTATYYCARTLDYYDSSGYLVGGAFDIWGQGTMVTVSS
B8: H01 minibody (scFv-Fc) (Fc fusion)
chain: B7 chain with S1Q, Y2P, E3G, V12L, E16Q, M20I, T29S, G31S
B9: B10 minibody (scFv-Fc) (Fc fusion)
chain: QSVVTQPPSVSGAPGQRVTISCTGSSSNIGSRTVNWYQQLPGTAPKLLIYANNQRPSGVPDRFSGSKSGTSASLAISGLQSEDEADYYCAAWDDSLNGYVFGTGTKLTVLSGGSTITSYNVYYTKLSSSGTQVQLQQSGPGLVKPSQTLSLTCAISGDSVSSNSATWNWIRQSPSRGLEWLGRTYYGSKWHSDYAVSVKSRITINPDTSKNQISLHLNPVTPEDTAVYYCARGRSYAFDIWDQGTMVTVSS
B10: R04 IgG1 (antibody, V domains shown)
VH: QVQLQQSGPGLVKSSQTLSLTCAISGDSVSSNGAAWHWIRQSPSRGLEWLGRTYYRSGWYNDYAVSVKSRITINQDTSKNQFSLQLNSVTPEDTAVYFCAREGGGGRMDVWSQGTTVTVSS
VL: EIVMTQSPSSLSASVGDRVTITCQASQDISNYLNWCQQKPGKAPKLLIYDASNLETGVPSRFSGSGSGTGFTFTISSLQPEDFATYYCQQSYSTPYTFGQGTKVEIK
B11: R04 minibody (scFv-Fc) (Fc fusion)
chain: EIVMTQSPSSLSASVGDRVTITCQASQDISNYLNWCQQKPGKAPKLLIYDASNLETGVPSRFSGSGSGTGFTFTISSLQPEDFATYYCQQSYSTPYTFGQGTKVEIKSGGSTITSYNVNYTKLSSSGAQVQLQQSGPGLVKSSQTLSLTCAISGDSVSSNGAAWHWIRQSPSRGLEWLGRTYYRSGWYNDYAVSVKSRITINQDTSKNQFSLQLNSVTPEDTAVYFCAREGGGGRMDVWSQGTTVTVSS
B12: G07 minibody (scFv-Fc) (Fc fusion)
chain: QSVLIQPPSASGTPGQRVTISCSGSNSNFGSNSVSWYQQRPGTAPKLLIEGNNQRPSGVPERFSGSKSGTSASLAISGLQSEDEAEYSCASWDDSLNAFVFGPGTKLTVLSGGSAITSYNVYYTKLSSSGTQVQLVQSGAEVKKPGESLKISCKGSGYSFTSYWIGWVRQMPGKGLEWMGIIYPGDSDIRYSPSFQGQVTISADKSFSSAYLQWSSLKASDTAMYYCARLGATGAFDIWGQGTTVTVSS
B13: B04 human minibody (scFv-human Fc) (Fc fusion)
scFv-Fc: B1 chain
B14: E08 human minibody (scFv-human Fc) (Fc fusion)
scFv-Fc: SYVLTQPPSVSVAPGKTARITCGGNNIGWKSVHWYQQKPGQAPVLVVYDDSDRPSGIPERFSGSNSGNTATLTISRVEAGDEADYYCQVWDSSSDLVVFGGGTKLTVLSGGSTITSYNVYYTKLSSSGTQVQLVQSGAEVKKPGSSVKVSCKASGGTFSSYAISWVRQAPGQGLEWMGGIIPIFGTANYAQKFQGRVTITADESTSTAYMELSSLRSEDTAVYYCARASGRWLQFWHYYGMDVWGQGTTVTVSS
B15: D04 human minibody (scFv-human Fc) (Fc fusion)
scFv-Fc: B3 chain
B16: D10 human minibody (scFv-human Fc) (Fc fusion)
scFv-Fc: QSVVTQPPSASGSPGQTVTISCSGNSANIGGNPVNWYQQLPGTAPKLLIYSNNQRPSGVPDRFSGSKSGISASLAISGLQSEDEADYYCAAWDDSLNGVIFGGGTKLTVLSGGSTITSYNVYYTKLSSSGTQVQLVQSGAEVKKPGESLKISCKGSGYSFTSYWIGWVRQMPGKGLEWMGIIYPGDSDTRYSPSFQGQVTISADKSISTAYLQWSSLKASDTAMYYCARRHSGSYSGAFDIWGQGTMVTVSS
B17: H01 human minibody (scFv-human Fc) (Fc fusion)
scFv-Fc: B7 chain with S1Q, Y2P, E3G, V12L, E16Q, M20I, T29S, G31S
B18: D07 human minibody (scFv-human Fc) (Fc fusion)
scFv-Fc: B7 chain
B19: B10 human minibody (scFv-human Fc) (Fc fusion)
scFv-Fc: B9 chain

Changes are numbered by the printed parent chain.

In the first experiment the target is T1, SARS-CoV-2 spike protein receptor binding domain (RBD2) (SARS-CoV-2, UniProt P0DTC2 319-537). The experiment can be described thus: SPR, immobilized antibody, RBD injected, 1:1 fit. Background: In SPR one partner is held on a chip, and binding of the other changes the refractive index at the surface.
In turn, B1 registered a Kd of 56.8 nM.
The same measure, in the same setting: with B2 the figure was 539 nM; with B3, 124 nM; with B4, 117 nM.
Turning to B5, binding was characterised by a dissociation constant (Kd) of 15.5 nM.
Turning to B6, the Kd was 798 nM.
In the case of B7, the Kd is 134 nM.
B8: the Kd came to 281 nM.
Consider B9, for which the Kd was determined as 344 nM.
The same measure, in the same setting: with B10 the figure was 190000 nM; with B11, 128 nM.

The target in the next experiment is T1, SARS-CoV-2 spike protein receptor …. Put plainly: SPR.
As to B1, binding was characterised by a dissociation constant (Kd) of 56.8 nM.
For the molecule B12, the Kd came to 63900 nM.
The molecule B8 had a Kd of 281 nM.
As for B10, the Kd was determined as 190000 nM.
B11 had a Kd of 128 nM.

Another experiment deals with SARS-CoV spike protein receptor binding domain (RBD1) (SARS-CoV, UniProt P59594 306-527). Put plainly: ELISA, crude human minibody. In general terms: ELISA stands for enzyme-linked immunosorbent assay.
Take B13: the binding result is recorded as “no binding”.
As for B14, the binding result is given as “binds”.
For B15, the binding result was “no binding”.
B16: the binding result was “no binding”.
B17: the binding result is listed as “no binding”.
On the same count and under the same terms, then B18, with “no binding”; and B19, with “no binding”.

A word on the Kd: it is a measure of binding affinity in units of concentration. A high value points to a looser complex.
